# According to IntAct's records for PubMed 16424905:
# B1: AN1-type zinc finger protein 5 (Homo sapiens), O76080 (parent)
# chain: MAQETNQTPGPMLCSTGCGFYGNPRTNGMCSVCYKEHLQRQQNSGRMSPMGTASGSNSPTSDSASVQRADTSLNNCEGAAGSTSEKSRNVPVAALPVTQQMTEMSISREDKITTPKTEVSEPVVTQPSPSVSQPSTSQSEEKAPELPKPKKNRCFMCRKKVGLTGFDCRCGNLFCGLHRYSDKHNCPYDYKAEAAAKIRKENPVVVAEKIQRI
# Variants of: B1
# Settings: with psmd6_human PSMD6, Q15008
# psmd6_human PSMD6, Q15008, sequence (Q15008 whole entry): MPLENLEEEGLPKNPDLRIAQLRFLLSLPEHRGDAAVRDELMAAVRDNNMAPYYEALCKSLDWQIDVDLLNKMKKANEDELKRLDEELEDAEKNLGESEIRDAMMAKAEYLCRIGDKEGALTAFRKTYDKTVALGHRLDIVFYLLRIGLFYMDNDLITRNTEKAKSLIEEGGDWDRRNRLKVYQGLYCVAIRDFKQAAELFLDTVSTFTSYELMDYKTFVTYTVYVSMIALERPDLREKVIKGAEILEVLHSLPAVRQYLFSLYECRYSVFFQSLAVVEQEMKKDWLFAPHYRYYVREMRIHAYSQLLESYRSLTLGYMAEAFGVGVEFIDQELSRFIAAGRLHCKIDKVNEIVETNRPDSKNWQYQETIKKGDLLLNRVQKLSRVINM
row,effect of a mutation on the interaction,Variant
1,disrupting interaction,MAQETNQTPGPMLCSTGCGFYGNPRTNGMCSVCYKEHLQRQQNSGRMSPMGTASGSNSPTSDSASVQRADTSLNNCEGAAGSTSEKSRNVPVAALPVTQQMTEMSISREDKITTPKTEVSEPVVTQPSPSVSQPSTSQSEEKAPELPKPKKNRCFMCRKKVGLTGFDCRCGNLFAGLHRYSDKHNCPYDYKAEAAAKIRKENPVVVAEKIQRI [C175A]
2,disrupting interaction,MAQETNQTPGPMLCSTGCGFYGNPRTNGMCSVAYKEHLQRQQNSGRMSPMGTASGSNSPTSDSASVQRADTSLNNCEGAAGSTSEKSRNVPVAALPVTQQMTEMSISREDKITTPKTEVSEPVVTQPSPSVSQPSTSQSEEKAPELPKPKKNRCFMCRKKVGLTGFDCRCGNLFCGLHRYSDKHNCPYDYKAEAAAKIRKENPVVVAEKIQRI [C33A]
3,disrupting interaction,MAQETNQTPGPMLCSTGCGFYGNPRTNGMCSVCYKEHLQRQQNSGRMSPMGTASGSNSPTSDSASVQRADTSLNNCEGAAGSTSEKSRNVPVAALPVTQQMTEMSISREDKITTPKTEVSEPVVTQPSPSVSQPSTSQSEEKAPELPKPKKNRCFMCRKKVGLTGFDCRAGNLFCGLHRYSDKHNCPYDYKAEAAAKIRKENPVVVAEKIQRI [C170A]
4,disrupting interaction,MAQETNQTPGPMLCSTGCGFYGNPRTNGMASVCYKEHLQRQQNSGRMSPMGTASGSNSPTSDSASVQRADTSLNNCEGAAGSTSEKSRNVPVAALPVTQQMTEMSISREDKITTPKTEVSEPVVTQPSPSVSQPSTSQSEEKAPELPKPKKNRCFMCRKKVGLTGFDCRCGNLFCGLHRYSDKHNCPYDYKAEAAAKIRKENPVVVAEKIQRI [C30A]

# Variants of: B1
# Settings: with ubc_human UBC
row,effect of a mutation on the interaction,Variant
1,disrupting interaction,MAQETNQTPGPMLCSTGCGFYGNPRTNGMCSVAYKEHLQRQQNSGRMSPMGTASGSNSPTSDSASVQRADTSLNNCEGAAGSTSEKSRNVPVAALPVTQQMTEMSISREDKITTPKTEVSEPVVTQPSPSVSQPSTSQSEEKAPELPKPKKNRCFMCRKKVGLTGFDCRCGNLFCGLHRYSDKHNCPYDYKAEAAAKIRKENPVVVAEKIQRI [C33A]
2,disrupting interaction,MAQETNQTPGPMLCSTGCGFYGNPRTNGMASVCYKEHLQRQQNSGRMSPMGTASGSNSPTSDSASVQRADTSLNNCEGAAGSTSEKSRNVPVAALPVTQQMTEMSISREDKITTPKTEVSEPVVTQPSPSVSQPSTSQSEEKAPELPKPKKNRCFMCRKKVGLTGFDCRCGNLFCGLHRYSDKHNCPYDYKAEAAAKIRKENPVVVAEKIQRI [C30A]
